One block for each compound: values may come before it.
Key:
[1] = biological target: Full-length LutR (LutR-FL, amino-acid residues 2–240) (Bacillus subtilis); assay: SEC; analytical SEC, Superdex 200 10/300 GL, room temperature, 20 mM Tris-HCl pH 7.5, 250 mM NaCl, 0.02% beta-mercaptoethanol; protein 2 mg/ml (66.7 uM), DNA 50 uM, protein:DNA 2:1.5; with and without 50 mM L-lactate; dimer told for the DNA-bound protein
[2] = biological target: DNA-binding domain of LutR (LutR–DBD, residues 2–78) (Bacillus subtilis); assay: SEC; analytical SEC, Superdex 200 10/300 GL, room temperature, PBS pH 7.4; protein 3 mg/ml (33.2 uM as printed); alone and with DNA (protein:DNA 2:1)
[3] = biological target: T1, LutR (LutR-FL, full-length); assay: microscale thermophoresis (label-free); format: binding, Bacillus subtilis; conditions: 8 μM LutR; 20 mM Tris-HCl pH 7.5, 250 mM NaCl, 0.02% β-mercaptoethanol; free protein without DNA; effector
T1 construct: full-length residues 2-240, N-terminal His6 and TEV site (pMCSG7-derived vector), His6-tagged protein purified and apparently tag kept; expressed in E. coli BL21(DE3)

stoichiometry N [1]: 2
Compound: Full-length LutR (LutR-FL, amino-acid residues 2–240) (natural protein)

stoichiometry N [2]: 2
Compound: DNA-binding domain of LutR (LutR–DBD, residues 2–78) (domain or fragment)

Kd [3]: 2.3 ± 0.005 mM
Compound: C[C@H](O)C(=O)O [L-lactate]
